In a protein production outcome set (Wang et al. 2014):

Assay: label from the status in PepcDB records

| Sequence | protein production |
| --- | --- |
| MEIIAAILVGIVALEHLFIMILEMFFMNSKVAKRAFKLPEHLEGDRNVAIMFANQGLYNGFLAVGLIWGLILGFNSIGYMVQLFFVMCVVVAALFGGFTSNKSIIVKQGLPAILALIALLIVI | failed |
| MEIKDLKRLARYNPEKMAKIPVFQSERMLYDLYALLPGQAQKVHVHEGSDKVYYALEGEVVVRVGEEEALLAPGMAAFAPAGAPHGVRNESASPALLLVVTAPRP | not failed |
| MEINRQIIHPLIFVAFFVTITGSVAGAAAAPEVNMELVGHFGGTTDAVDVAGNYAYVGQGQDFLILDITNPSSPVLVSKIMTEGFVRDIKVSRNYAYVADDDNGLVIVDISNPSSPTLKGSYNIPGYTYCITVSGNYAYVADNDGLVIVDISNPSDPILKGRYAGPTGDVAVYGNYAYVADWGNGLMIVDISNPSSPVLKGSYDTAGDIYGVSISGNYAYVADGDTGLVIVDISNPSSPTLKGNYNTAGIACDVSVLGNYAYVADNDNGLVIVDISDPSSPVLKGNGSTTGYAHGIEVSGNYAYVANSNTGLVIVDISNPSSPTLKGSCDTIVRAKSIAVSGNYAYIADWDNGLVIVDISNPSSPFLKGSCDTPRSAQGVAVSGNYAYVADDDGLVIVDISNPSFPILNKSYNTGGWAQGITVSGNYAYVIDMANGIFIVDISNPSSPILEGMYDTSPIIIENYDYTGSIWSVSVSGNYAYVADEGNGLLIVDISNPSSPILKGSYDTAGLAYDVAVSGNYAYVADSKNGLAIIDISNPSSPILVGNYNTSGYAECVSISGNYAYVAVDDSLVVVDISNPSSPILKGLYAGSAGDIAVSGNYVYASEGVNGLVILKANPESAFTVADFSSNITSGYAPLSIQFNDHSQNATSWNWDFGDGYNSTNQNPIHTYSSAGTYTVNLTVINENRTASKVAKIFVLNTSSSTEENSSGSEETGGDGVILTKDTGAPTKERKITPGFEIVYWVVSLLVAFWIKGSNKK | failed |
| MEIRMAAAADFAEIWPLFQAVISSGDTYVFTPDTPEQDAYDYWFGAGVRCWVAVHEGRVVGMYKLIDNQRGLGNHVANASFMVDGEARGLGIGKALGLHCIKQATDLGYRAIQFNFVVSTNTLAVALWQKLGFEIIATLPGAFNHSQLGYVDAYVMHRALLPN | failed |
| MEIRNVKGTKDYLPEEQVLRSKIKRACEDTFERYGCKPLETPTLNMYELMSYKYGGGDEILKEIYTLQDQGKRDLALRYDLTIPFAKVVAMNPNIRLPFKRYEIGKVFRDGPIKQGRFREFIQCDVDIVGVESVMAEAELMSMAFELFQTLNLEVTIQYNNRKLLNGILQAINIPTELTSDVILSLDKIEKIGIDGVRKDVLERGISEEMADTICNTVLSCLQLSIADFKEAFNNPLVADGVNELQQLQQYLIALGINENTIFNPFLARGLTMYTGTVYEIFLKDGSITSSIGSGGRYDNIIGAFRGDDMSYPTVGISFGLDVIYTALSQKETISST | not failed |
| MEITKRIEELREEMVESLKKFISINSVNPAFGGPGEKEKADWLEGLLRDFGFEVDRCDVRDDRGIWRSNIVAKIPGKNREKTLWIVTHIDTVPPGDLSLWETDPFVPVVKDGKVYGRGAEDNGGSMIASIYAGKALIDLGITPEYNFGLALVADEEAGSEYGIQYLIEKGLFSPEDMFLVPDAGNEKGDFIEIAEKSILWFKVMVNGKQGHASRPQTTENALRKGAHLITEIDEALHRKYSDRDELFDEPLSTFEPTRAEKTVDNVNTVPGRFVFYFDCRVLPRYNLDEVLSIVKSILDGRGAELEVVVKQPAPEPTPPDSELVVKLSNVLRSLRGLEAKVGGIGGGTCAAFFRKKGWPAVVWSTIDETAHQPNEYRRISHMVEDAKVFALLGTER | not failed |
| MEITVIASSSIDEGIGSWDLKTGTEQLQFKPCASPAHGLTAVGEKFLASSQLSARNTSGSIFYWSWTKPQAEVKSYPVEPIKALAANNEGTYLVGGGISGDIYLWEVATGKLLKKWHGHYRSVTCLVFSGDDSLLVSGSQDGSIRVWSLIRLFDDFQRQQGNTLYEHNFNEHTMSVTDIVIDYGGCNAVIISSSEDRTCKVWSLSRGKLLKNIIFPSVINALALDPGGCVFYAGARDSKIYIGAINATSEYGTQVLGSVSEKGKAITCLAYCADGNLLISGSEDGVVCVWDPKSLRHVRTLIHAKGSRKGPVNNIQIVRKTIVANSNKTQVSWKSRGALIPPPLEKYERPVEDTMDGIVTVDPPPFSDVPVYSSFLSADLIDEQVKELQQQGSAATEMEMERLKLEYKRSLQMNEQWQKNYENLLQVVMEEEQIGGTN | failed |
| MEIYLVFVDAASNSNKFWTAKVEQNQLTVQWDRVGYKAQTKVHQFTSQAQAANKYNNLVFEKKAKGYQESQPQIESCGVVDIRRAMQLLNGLRSYVTNRNFNADYINLLNQYLKIIPTPLGMQLEPYRIFTSVADVDHQRELLSSLIPATPVAVTQAKQMPESQEKIVSLRGIHKNLWRHFLEHHHHHH | failed |
| MEKCSVGGLELTEQTPALLGNMAMATSLMDIGDSFGHPACPLVSRSRNSPVEDDDDDDDVVFIESIQPPSISAPAIADQRNFIFASSKNEKPQGNYSVIPPSSRDLASQKGNISETIVIDDEEDVETNGGAEKKSSFFIEWGLPGTKNKTNDLDFSTSSLSRSKTKTGVRPFNPGRMNVAGDLFQNGEFATHHSPEMHLQRRLMSFFQ | not failed |
| MEKDDATASFSPSFSTYSGDRLVEIAERVCYKEKSDAEFEFSTAATSSSGDGGLVFPVFNKNLISGDVSPEKVIPLKDLFLRERNDQQPPQQTYSSSSDEEEEDDEFDSIPSEIYCPWTPARSTADMSPSGGCRKSKSTGSSSTSTWSTKRWRLRDFLKRSKSDGKQSLKFLNPTNRDDDDESSKSKKKVSVSVTVSAHEKFYLRNKAIKEEDKRKSYLPYKQDLVGLFSNIHRYGKTFPPF | failed |
| MEKDDSNDGSIIGGNGITAGKDVFLHNIKAPVNIGNTNNTNQNYTTYIISENIEEHTKSLIDFAQFCENKREYEKALDYYEQARVKLEKSESKILLVKVMMGEAVCHHKKGNLSRAKNLIFEAERLDPKNPTVLANIASQLKSENPDEAEIYAKKALEFDKNNFLAKCVIGLLEYDKGNIKDSLRTLKQASTINPNVGYPFNCMARIYSSEKDYGNAIKYGKKAVKIESDNAIFLMELAIDYMNIAFPENEVCISSDFSKMLKMEYLEKALKCLEKAKEMSESQGNNYLNCEIYTYLSRVHLAKGEFNKSIEYCEMIINSGLDTIDIYIILGEAYGECQNYDKVIEYYELLLKRENLTENHLFIVKANLATSYFYKNRLNEAEKLFKELIDENPENINLCIQMSNVLEENGKIEKAFSLLEKIDKFSQKPWDFYYMMGRLYHKKDDYESSVKYLKEAISKNSEAIPPRIYLINLYLECGMHKYAVKQAIELIQLAPTGINFYKLASLYYEIGDYKESAVFSRKALEADYGKVETYRLLCSSLLEANKLSEAKDEFENAFTKYPDDLELKLNYSATLSALEYTEKAIEILTQIISNDPNVVFAYKALARIYYKEASYEIALEYSKKAVFIEPEDEDAHFVMGCSLLNLGKNDEAVEEIQKVIEINPNFDSAWLIDAEKGMEYLGNLITISNHIIERYENGNITISKVGELLIKDTFDLLCHINNVKVAESLSLSDEKIDQLRNSPISKRDVLVDETMLGILAKTGSLDLLRLAFDHVYVIKELEDKIVIGPYLKDHPYRDVKNKLQIIDGGWIESLNPNDMIALATKKIVVENKFSKNDISFIALALDKDFLCLTEDLLLRIQLESINKPTCGIFGFVNYAVSKNIIKQDDAEKIFTKVKSVCIVE | failed |
| MEKDKKTTAKIYPFYPNGQFYFERGVEAFREQRIKEAIRYLVRASELEPGEPVILCQLAICYTEIGQFHKSNQLLREIMEKRLGNMEYCYYFIANNFAYMKDYRRALQYASRYLEIAADGDYAEEAKDLIEVLLEETPFGETIENGFSKLEQEFYSYKKEINRYLAEEDSASACDILKKVIDEKPNFWPAYNQLAALYFEQLKEEEGVKVLSDLIARNPGNLLGLCDLFIYHFYKGNREEADSLYSELRDVLPVLSHHKEKIGLIHAMMGDYEEADDLLEQVADLEVTERSKYYYYRAKSAYYLDEVEEAKMFWHSFLECDLYEDTRFPWEQEADLTNDTRLVLEMLQAESDMTHLLGVYAMTVSGNRPEFVLFHPLLDMSSWSYMEHLMFTDFDYFPDGNVEQNCYLIMKAMTILRENGLLLNEENLPLYETIFSLVLMENRKELILGRYTIETVASAIAKIFLPEMKLASVDEFECSKCARDIEQFLSR | failed |
| MEKDLLDKLGQHLVWRMGRAEDEDVLVVRVGLASATPRFRELPRLLNLPEAEMRRLVQEGRVRVEWVEE | not failed |
